Consider 41 sequences from the nanobody polyreactivity screen of Harvey et al. (2022).

The data set can be described thus: yeast display, Sf9 membrane polyspecificity reagent, FACS + sequencing; frameworks hold sequencing errors. Put shortly: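 Galactose-induced (36–48 hours) yeast carrying a synthetic nanobody display library were exposed to 10% biotinylated, detergent-solubilized Sf9 membrane reagent at 4 °C for 1 hour. FACS followed streptavidin microbead enrichment, using low and high (top ~1%) gates for expression (anti-HA) and reagent binding (streptavidin). Colony PCR, MiSeq 2 × 250 sequencing and CDR-length filtering followed. Labels for polyreactivity reflect the gate of origin.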
“QVQLVESGGGLVQAGGSLRLSCAASGSILTSYAMGWSRQAPGKERELVAAISTTGGSTYYADSVKGRFTISRDNAKNTVYLQMNRLKPEDSAVYYCAAAGRTYRPGTGGYGYWGQGTQVTVSS”: the “polyreactivity (PSR sort gate)” value is “low polyreactivity”. Under “QVQLVESGGGLVQAGGSLRLSCAASGSILTVYAMGWYRQAHGKERELVARIRSGDRTYYADSVKGRFTISRDNAKNTVYLQMNSLKPEDTAVYYCAAGSQRRYYHTNWDSFNYWGQGTQVTVSS” stands “low polyreactivity”. Then “QVQLVESGGGLVQAGGSLRLSCAASGSILVGNAMGWYRQAPGIERELVAGSSESDGSTNYADSGKGRFTISRDKSKNTVYLPMNSLKPEETAVYYRAADIWTSGDIPYDYWGQGTQVTVSS”, with “low polyreactivity”; and “QVQLVESGGGLVQAGGSLRLSCAASGSILVGYAMGRYRLAPGKERELVAAISFSGGSTYYADSVKGRFTISRDNAKNTVYLQMNRLKQEDTAVYYCAAKRRVWIFYSSSDDYWGQGSQVTVSS”, with “low polyreactivity”; and “QVQLVESGGGLVQAGGSLRLSCAASGSILVPYAMGWYRQAPGKERELVAAISIRTGSTYYADSVKGRFTISRDNAKNTVYLQMNSLKPEDTAVYYCNAAHRKPYTGLNYWGQGTQVTVSS”, with “high polyreactivity”. Then “QVQLVESGGGLVQAGGSLRLSCAASGSILVPYSMGWYRQAPGKERELVAAISWGGGSTYYADSVKGRFTISRDNAKNTVYLQMNSLKPEDTAVYYCAADFGYYDYDYWGQGTQVTVSS”, with “low polyreactivity”; and “QVQLVESGGGLVQAGGSLRLSCAASGSILVYYAMGWYRQAPGKEREFVAAITRSGGSTYYADSVKGRFTISRDNAKNTVYLQMNSLKPEDTAVYYCNARDVVWKRFTRYDFWGQGTQVTVSS”, with “high polyreactivity”; and “QVQLVESGGGLVQAGGSLRLSCAASGSILWHNAKGWYRQAPGKEREFVAAISARGTRTYYADSVKGRFTISRDNAKNSVYLQMNSLKPEDTAVYYCAARYWDDRARAEDYWGQGTQVTVSS”, with “high polyreactivity”.

“QVQLVESGGGLVQAGGSLRLSCAASGSILWHNAMGCYRQAPGKEREFVAAISARGTRTYYADSVKGRFTISRDNAKITVYLQMNSLKPEDTAVDYCAARYWDDRARAEDYWGQGTQVTVSS”: the “polyreactivity (PSR sort gate)” value was “high polyreactivity”.

Take “QVQLVESGGGLVQAGGSLRLSCAASGSILYANAMGWYRQAPGKERELVAAISARGTSTYYADSVKGRFTISRDNAKNTVYLQMNSLKPEDTAVYYCATGRKNAAQRWGYYYWGQGTQVTVSS”: the “polyreactivity (PSR sort gate)” value is “high polyreactivity”. Under “QVQLVESGGGLVQAGGSLRLSCAASGSILYFNAMGLYRQAPGKERELVATITSGGSTNYADSVKWRFTISRDNAKNTVYLQMNSQKPEDTAVYYSAADYSTRKADYWVQGTQVTVSS” stands “low polyreactivity”; under “QVQLVESGGGLVQAGGSLRLSCAASGSILYGNDMGWYRQAPGKERELVATITSSDSTYYADSVKGRFTISRDNAKNTVYLQMNSLKPEDTAVYYCAADSSEWLLKDDYWGQGTQVTVSS”, “low polyreactivity”; under “QVQLVESGGGLVQAGGSLRLSCAASGSILYHYAMGWYRQAPGKERELVAGISWRGGSTYYADSVKGRFTISRDNAMNTVYLQMNSLKPEDTAVYYCATLRYPYRFYAFQYYYWGQGTQVTVSS”, “low polyreactivity”. In the case of “QVQLVESGGGLVQAGGSLRLSCAASGSILYPYAMGWYRQAPGKERELVAAIRSRGGSTYYADSVKGRFTISRDNAKNTGYLQMNSLKPEDTAVYYCAAGSTRARFDYWGQGTQVTVSS”, the “polyreactivity (PSR sort gate)” value is listed as “high polyreactivity”. Take “QVQLVESGGGLVQAGGSLRLSCAASGSILYRNAMGWYRQAPGKERELVAAITYSGARTYYADSVKGRFTISRDNAKNSVYLQMNSLKPEDTAVYYCAATAAGYWYSAYDYWGQGTQVTVSS”: the “polyreactivity (PSR sort gate)” value is “low polyreactivity”. Then “QVQLVESGGGLVQAGGSLRLSCAASGSILYYNAMGWYRQAHGKERELVAAISTRGGSTYYADSVKGRFTISRDNAKNTVYLQMNSLKPEDTAVYYCAADHNVIWGYYYWGQGTQVTVSS”, with “high polyreactivity”; and “QVQLVESGGGLVQAGGSLRLSCAASGSILYYNAMGWYRQAPGKERELVAAITSGGSTYADSVKGRFTISRDNAKNTFYLQMNCLKPEDTAVYYCAADLYWYLSDYGTTLEHDYWGQGTQVTVSS”, with “low polyreactivity”; and “QVQLVESGGGLVQAGGSLRLSCAASGSILYYNAMGWYRQAPGKERELVAGIRSSGGSTYYADSVKGRFTISRDTAKNTVYLQMNSLKPEDTAVYYCAKRTYWRRGWGFDYWGQGTQVTVSS”, with “high polyreactivity”.

In the case of “QVQLVESGGGLVQAGGSLRLSCAASGSILYYYAMGWYRQAPGKERELVAAISSSGGRTYYADSVKGRFTISRDNAKNTVYLQMNSLKPEDTAVYYCAATNRRQPYKDREDYWGQGTQVTVSS”, the “polyreactivity (PSR sort gate)” value is listed as “high polyreactivity”. Then “QVQLVESGGGLVQAGGSLRLSCAASGSINVRYAMGWYRQAPGKERELVAAISWSGGRTYYADSVKGRFTISRDNAKNTVYLQMNSLKPEDTAVYYCAADSSVRYRDTEDYWGQGTQVTVSS”, with “low polyreactivity”.

For “QVQLVESGGGLVQAGGSLRLSCAASGSIRHNTMGWYRQAPGKEREFVASISKRGGSTYYADSVKGRFTISRDNAKNTVYLQMNSLKPEYTAVYYCNAGAVTFVGRDYWGQGTQVTVSS”, the “polyreactivity (PSR sort gate)” value was “high polyreactivity”. Then “QVQLVESGGGLVQAGGSLRLSCAASGSIRSYAMGWYRQAPGKERELVAAITRSGGSTYYADSVKGLFTISRDNAKNTVYLQMNSLKPEDTAVYYCAARYTYSYPLFGSWGQGTQVTVSS”, with “high polyreactivity”; and “QVQLVESGGGLVQAGGSLRLSCAASGSIRSYAMGWYRQAPGKERELVAAITRSGGSTYYADSVKGRFTISRDNAKNTVYLQMNSLKPEDTADYYCGARSTYSYPLFGSWGQGTQVTVSS”, with “high polyreactivity”.

For “QVQLVESGGGLVQAGGSLRLSCAASGSIRYYAMGWYRQAPGKERELVAAISSRGTNTYYADSVKGRFTISRDNAKNTVYLQMNSLKPEDTAVYYCNAVVGLGYNYWGQGTQVTVSS”, the “polyreactivity (PSR sort gate)” value was “high polyreactivity”. Under “QVQLVESGGGLVQAGGSLRLSCAASGSISAGNAMGWYRQAPGKERDLVAAISGSGGSTYYADSVKGRFTISRYNAKNTVYLQMNRLKPEDTAVYYCAARGGYRLRYIPYVRYDYWGQGTQVTVSS” stands “high polyreactivity”; under “QVQLVESGGGLVQAGGSLRLSCAASGSISASYAMGWYRQAPGKERELVAAITSGGSTYYADSVKGRFTISRDNAKNTVYLQMNSLKPEDTAVYYCAKRPKRTYYPHIGYDYWGQGTQVTVSS”, “low polyreactivity”. Then “QVQLVESGGGLVQAGGSLRLSCAASGSISAVNAMGWYRQAPGKERELVAAITYSGGSTYYADSVKGRFTISRDHAQNTVYLQINSLKPEDTAVYNCAARARYPNWTYYYWGQGTQVTVSS”, with “high polyreactivity”. Under “QVQLVESGGGLVQAGGSLRLSCAASGSISDVYTMGWYRQAPGKERELVAANSFSGDSTYYADSVKGRFTISRDNAKNTVYLQMNSLKPEDTAVYYCATDVGYVYGYYYWGQGTQVTVSS” stands “low polyreactivity”. As for “QVQLVESGGGLVQAGGSLRLSCAASGSISFLYTMGWYRQAPGKERELVAAITGSTASTYYADSVKGRFTISRDNAKNTVYLQMNSLKPEDTAVYYCNADSYPGLNPDFDYWGQGTQVTVSS”, the “polyreactivity (PSR sort gate)” value was “low polyreactivity”. Under “QVQLVESGGGLVQAGGSLRLSCAASGSISFRYAMGWYRQAPGKDRELVAAITSGGGTTYYADSVKGRFTISRDNAKNTVYLQMNSMKPEDTAVYYCAKPRARQAFDYWGQGTQVTVSS” stands “high polyreactivity”; under “QVQLVESGGGLVQAGGSLRLSCAASGSISFSNAMGWYRQAPGKERELVASITSGGSTKYADSVKGRFTISRDNAKNTVFLQMNSLKPEDTAVFYCAADGYDYWGQGTQVTVSS”, “low polyreactivity”; under “QVQLVESGGGLVQAGGSLRLSCAASGSISGYNAMGWYRQAPGKERELVAAISWAGGITRYADSVKGRFTISRDNAKNPVYLQMNSLKPEDTAVYYCAADQTYERHWVYYWGQGTQVTVSS”, “low polyreactivity”. Then “QVQLVESGGGLVQAGGSLRLSCAASGSISGYNAMGWYRQAPGKESELVAVITTDGSTNYADSEKGRFTISRDNAKNTVYLQMNSLKPEDTAVYYCNTDDGWRLLWEYDYWGQGTQVTVSS”, with “low polyreactivity”; and “QVQLVESGGGLVQAGGSLRLSCAASGSISGYYAMGWYRQAPGKERDLVASIRYTGARTYYADSVKGRFTISRDNAKNTVYVQMNSLKPEDTAVYYCAADVKRERVWGGDYWGLGTQVTVSS”, with “low polyreactivity”. Then “QVQLVESGGGLVQAGGSLRLSCAASGSISGYYAMGWYRQAPGKERELVASIRYTGARTYYADSVKGRFTISRDNAKNTVYLQMNSLKPEDTAVYYGAADVKRDRVWGGDYWGQGTQVTVSS”, with “low polyreactivity”; and “QVQLVESGGGLVQAGGSLRLSCAASGSISHLYTMGCYRQSPGKERELVAAIRYSGGRTDYADSVKGRFTISRDNAKNTVYLQMNSLKPEDTAVYYCAAGRSFRGSYWYEYWGQGTQVTVSS”, with “high polyreactivity”; and “QVQLVESGGGLVQAGGSLRLSCAASGSISNRYAMGWYRQAPGKERELVAAISTGGGTTYYADSVKGRFTISRDNAKNTVYLQMNSLKPEDTAVYYCAADDWRYYRELDYWGQGTQVTVSS”, with “low polyreactivity”.

Regarding “QVQLVESGGGLVQAGGSLRLSCAASGSISSGYTMGWYRQAPGKERELVASIRSGGSTYYADSVKGRFTISRDNAKNTVYLQMNSLKPEDTAVYYCAARFFYRYSWGRTRGYDYWGQGTQVTVSS”, the “polyreactivity (PSR sort gate)” value is on record as “high polyreactivity”. Under “QVQLVESGGGLVQAGGSLRLSCAASGSISSVNVMGWYRQAPGKERELVAAISSGTSTHYADSVKGRFTISRDNAKNTVYLQMNSLKPEVTAVYYCNKTSFLVKLDYWGQGTQVTVSS” stands “low polyreactivity”. Then “QVQLVESGGGLVQAGGSLRLSCAASGSISTNYAMGWSRQAPGKERELVAAISSSGGSTYYADSVKGRFTISRDNAKNTVYLQMNSLKPEDTAVYYCRYKFGYWGQGTQVTVSS”, with “high polyreactivity”; and “QVQLVESGGGLVQAGGSLRLSCAASGSISVRNVMGWYRQAPGKERELVATIRRPGGSTSYADSVKGRFTISRDNAKNTVYLQMNSLKPEDTAVYYCAAVGYTTYRRYDYWGQGTQVTVSS”, with “low polyreactivity”.
